Numbering of substitutions follows the chain as printed. Values belong to the binder of their own block, whether it stands above or below them.
Legend:
hRAGE-Fc [1] = target: T1, hRAGE-Fc (human, UniProt Q15109 23-342, biotin label in the selections and HTRF assays); assay: IC50 of parental M4 scFv over IC50 of clone, HTRF competition
T1 construct: extracellular domain; also called biotin labeled hRAGE-Fc; Biotin-labeled RAGE-Fc; not shown: Fc part
Experimental: (§1) Increases in binding to RAGE antigen were detected with the aid of a competition assay using parental XT-M4 antibody. Both phage display and ribosome display libraries were selected for affinity improved variants by incubating with biotin labeled hRAGE-Fc, recovering binding clones using streptavidin magnetic beads and washing away non binding variants. Sequential rounds of selection were carried on decreasing antigen concentrations to drive the preferential recovery of higher affinity variants. Clones recovered after selection were subsequently screening for improved binding to hRAGE-Fc using HTRF. This is an assay that measures the decrease in fluorescence upon binding of parental europium cryptate-labeled XT-M4 to RAGE in the presence of competing test scFv antibodies. In these assays, periplasmic preparations of scFv were prepared from bacterial cultures and added in increasing concentrations to a combination of parental antibody and antigen. The ability of the scFV to compete with parental XT-M4 antibody to bind to Biotin-labeled RAGE-Fc was determined. In the presence of avidin-XL665 complex labeled XT-M4 bound to biotinylated RAGE-FC was detected by Fluorescence. Increasing amounts of scFv that competed with the XT-M4 for binding to biotinylated-RAGE-Fc was detected as a decrease in fluorescence. A sequential process of screening was used to focus in on a smaller number of clones with the greatest competition in HTRF assay

hRAGE-Fc [2] = target: T1, hRAGE-Fc; assay: HTRF competition, scFv vs labelled parental XT-M4 (competitor) on hRAGE
Experimental: as §1

hRAGE-Fc [3] = target: T1, hRAGE-Fc; assay: HTRF competition, scFv vs labelled parental XT-M4 (competitor) on biotin hRAGE-Fc
Experimental: as §1

HU-RAGE-SA [4] = target: T2, HU-RAGE-SA (human, UniProt Q15109 23-342); assay: BIAcore kd against parental M4 scFv-Fc
T2 construct: extracellular domain; Directly immobilized on a CM5 chip (~100 RU); also called hRAGE-SA; soluble human streptavidin-tagged RAGE; not shown: streptavidin tag (SA)

hRAGE-Fc [5] = target: T1, hRAGE-Fc; assay: IC50 of parental M4 scFv-Fc over IC50 of clone, HTRF competition
HU-RAGE-SA [6] = target: T2, HU-RAGE-SA; assay: BIAcore, 10 nM scFv-Fc over directly immobilized HU-RAGE-SA, 1:1 fit
[7] = target: T3, human RAGE expressed on CHO cells (human, UniProt Q15109 23-404); assay: cell ELISA on CHO-RAGE cells, A450 corrected for control CHO cells
T3 construct: whole, on cells; also called CHO-RAGE cells; cell surface expressed human RAGE
Experimental: Stably transfected Chinese Hamster Ovary (CHO) cells were engineered to express murine and human RAGE full length proteins. The murine and human RAGE cDNAs were cloned into the mammalian expression vector pSMED, linearized and transfected into CHO cells using lipofectin methods (Kaufman, R. J., 1990, Methods in Enzymology 185:537-66; Kaufman, R. J., 1990, Methods in Enzymology 185:487-511; Pittman, D. D. et al., 1993, Methods in Enzymology 222: 236). Cells were further selected in 20 nM methotrexate and cell extracts were harvested from individual clones and analyzed by SDS sodium dodecyl sulfate-polyacrylamide gel electrophoresis (SDS-PAGE) and Western blotting to confirm expression. […] Absorbance 450 nm values were corrected for the same clones binding to control CHO cells not expressing RAGE. EC50 values were calculated after curve fitting using GraphPad prism and are expressed in μg/ml.

hRAGE-Fc [8] = target: T1, hRAGE-Fc; assay: HTRF competition, scFv vs labelled parental XT-M4 (competitor) on biotin hRAGE-Fc; remark: listed apart in the source
Experimental: as §1

T3 sequence (Q15109 23-404): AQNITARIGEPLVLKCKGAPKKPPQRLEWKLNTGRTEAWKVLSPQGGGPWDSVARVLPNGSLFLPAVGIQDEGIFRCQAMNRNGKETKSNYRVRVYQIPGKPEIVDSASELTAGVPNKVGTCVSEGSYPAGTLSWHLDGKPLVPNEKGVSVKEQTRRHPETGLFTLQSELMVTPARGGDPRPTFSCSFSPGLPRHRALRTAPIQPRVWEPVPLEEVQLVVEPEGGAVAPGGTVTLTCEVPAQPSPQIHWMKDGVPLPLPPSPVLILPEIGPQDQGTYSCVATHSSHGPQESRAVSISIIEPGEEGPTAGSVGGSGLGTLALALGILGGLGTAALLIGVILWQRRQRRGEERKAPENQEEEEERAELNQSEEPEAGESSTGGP
T1 sequence (Q15109 23-342): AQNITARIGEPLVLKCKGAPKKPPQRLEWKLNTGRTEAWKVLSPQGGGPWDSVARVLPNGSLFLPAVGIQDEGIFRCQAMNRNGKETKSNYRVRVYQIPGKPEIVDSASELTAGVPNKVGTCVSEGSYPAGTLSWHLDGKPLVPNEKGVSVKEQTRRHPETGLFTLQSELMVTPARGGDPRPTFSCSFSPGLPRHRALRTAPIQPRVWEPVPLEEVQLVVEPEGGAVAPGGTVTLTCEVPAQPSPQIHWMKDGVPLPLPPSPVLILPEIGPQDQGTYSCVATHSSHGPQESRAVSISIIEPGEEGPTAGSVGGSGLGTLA
T2 sequence (Q15109 23-342): as above

B1: S1R5A1_3B3 scFv (scFv)
scFv: DIQMTQSPSSLSASVGDRVTITCRASQDVGFYVNWFQQKPGKAPRRLIYRATNLADGVPSRFSGSRSGTDFTLTISSLQPEDFATYYCLEFDEHPLTFGGGTKVEIKDGGGSGGGGSGGGGSSEVQLVESGGGLVQPGGSLRLSCAASGFTFNNYWMTWVRQAPGKGLEWVASIDNSGDNTYYPDSVKDRFTISRDNAKNSLYLQMNSLRAEDTAVYYCARGGDITTGLDYWGQGTLVTVSS
Fold gain scFv (hRAGE) (hRAGE-Fc [1]): 15 fold
IC50 (hRAGE-Fc [2]): 2.2 nM
IC50 (hRAGE-Fc [3]): 2.2 nM

B3: 1G6 scFv-Fc fusion (Fc fusion)
chain: B1 scFv with T227N, L229F
notes: not shown: wild-type human IgG Fc (hinge and constant domains)
Fold change in kd (HU-RAGE-SA [4]): 66.9 fold
Fold gain scFv-Fc (hRAGE) (hRAGE-Fc [5]): 6.4 fold
EC50 [7]: 0.188 mg/L
koff (HU-RAGE-SA [6]): 0.000438 s⁻¹

B4: 3A6 scFv-Fc fusion (Fc fusion)
chain: B1 scFv with F31I, T226L, T227V, G228S, Y231V
notes: as for B3
Fold change in kd (HU-RAGE-SA [4]): 33.8 fold
Fold gain scFv-Fc (hRAGE) (hRAGE-Fc [5]): 9.9 fold
EC50 [7]: 0.0673 mg/L
koff (HU-RAGE-SA [6]): 0.000867 s⁻¹

B6: S1R5A1_10G10 scFv (scFv)
scFv: B1 scFv with F31I, K103R, T158S, D179E, L229F
Fold gain scFv (hRAGE) (hRAGE-Fc [1]): 2 fold
IC50 (hRAGE-Fc [2]): 16.3 nM
IC50 (hRAGE-Fc [3]): 16.3 nM

B8: 2E6 scFv-Fc fusion (Fc fusion)
chain: B1 scFv with F31I, S122N, G132V, T227N
notes: also called 2E6 (c); not shown: wild-type human IgG Fc (hinge and constant domains)
Fold change in kd (HU-RAGE-SA [4]): 25.7 fold
Fold gain scFv-Fc (hRAGE) (hRAGE-Fc [5]): 6.9 fold
EC50 [7]: 0.113 mg/L
koff (HU-RAGE-SA [6]): 0.00114 s⁻¹

B9: S2R3A1_2E6 scFv (scFv)
scFv: B1 scFv with F31I, S122N, G132V, T227N
notes: also called 2E6 (c)
Fold gain scFv (hRAGE) (hRAGE-Fc [1]): 17.3 fold
IC50 (hRAGE-Fc [2]): 1.9 nM
IC50 (hRAGE-Fc [3]): 1.9 nM

Next, values leading:

Fold change in kd (HU-RAGE-SA [4]): 25.3 fold
Fold gain scFv-Fc (hRAGE) (hRAGE-Fc [5]): 13.7 fold
koff (HU-RAGE-SA [6]): 0.00116 s⁻¹
B2: 10H6 scFv-Fc fusion (Fc fusion)
chain: B1 scFv with R18G, R24Q, F31I, D108N, V240E
notes: also called 10H6 (a); not shown: wild-type human IgG Fc (hinge and constant domains)

Fold change in kd (HU-RAGE-SA [4]): 60 fold
Fold gain scFv-Fc (hRAGE) (hRAGE-Fc [5]): 38.6 fold
EC50 [7]: 0.155 mg/L
koff (HU-RAGE-SA [6]): 0.000488 s⁻¹
B5: 6C3 scFv-Fc fusion (Fc fusion)
chain: B1 scFv with F31I, T227L, Y231V
notes: as for B3

Fold gain scFv (hRAGE) (hRAGE-Fc [1]): 21.5 fold
IC50 (hRAGE-Fc [2]): 1.53 nM
IC50 (hRAGE-Fc [8]): 1.53 nM
B7: 6C3 scFv (scFv)
scFv: B1 scFv with F31I, T227L, Y231V

Fold gain scFv (hRAGE) (hRAGE-Fc [1]): 26 fold
IC50 (hRAGE-Fc [2]): 1.27 nM
IC50 (hRAGE-Fc [8]): 1.27 nM
B10: 3D2 scFv (scFv)
scFv: B1 scFv with F31I, T226R, T227V, G228S, Y231H

Fold change in kd (HU-RAGE-SA [4]): 0.35 fold
Fold gain scFv-Fc (hRAGE) (hRAGE-Fc [5]): 6.1 fold
koff (HU-RAGE-SA [6]): 0.0826 s⁻¹
B11: 5H3 scFv-Fc fusion (Fc fusion)
chain: B1 scFv with F31I, Y49D, Q126L, L229F
notes: as for B3

Fold change in kd (HU-RAGE-SA [4]): 42.8 fold
Fold gain scFv-Fc (hRAGE) (hRAGE-Fc [5]): 34.2 fold
EC50 [7]: 0.0335 mg/L
koff (HU-RAGE-SA [6]): 0.000684 s⁻¹
B12: 3B2 scFv-Fc fusion (Fc fusion)
chain: B1 scFv with F31I, T226L, T227V
notes: as for B3

Fold change in kd (HU-RAGE-SA [4]): 19.2 fold
Fold gain scFv-Fc (hRAGE) (hRAGE-Fc [5]): 9.4 fold
EC50 [7]: 0.0285 mg/L
koff (HU-RAGE-SA [6]): 0.00153 s⁻¹
B13: 6C2 scFv-Fc fusion (Fc fusion)
chain: B1 scFv with F31I, T226K, T227V, G228S, Y231R
notes: as for B3

Fold gain scFv (hRAGE) (hRAGE-Fc [1]): 18.6 fold
IC50 (hRAGE-Fc [2]): 1.77 nM
IC50 (hRAGE-Fc [8]): 1.77 nM
B14: 6B2 scFv (scFv)
scFv: B1 scFv with F31I, T226R, T227V, Y231V

Fold change in kd (HU-RAGE-SA [4]): 7.4 fold
Fold gain scFv-Fc (hRAGE) (hRAGE-Fc [5]): 31.3 fold
EC50 [7]: 0.136 mg/L
koff (HU-RAGE-SA [6]): 0.00391 s⁻¹
B15: 3D2 scFv-Fc fusion (Fc fusion)
chain: B1 scFv with F31I, T226R, T227V, G228S, Y231H
notes: as for B3

— patent publication US20100143349A1 (Pfizer, published 2010)
